Assay results: PMC7641752, “A hand-off of DNA between archaeal polymerases allows high-fidelity replication to resume at a discrete intermediate three bases past 8-oxoguanine”

Tests used:
[1] = molecular target: T1, PCNA123 (Saccharolobus solfataricus) (UniProt P57766)
T1 sequence 1: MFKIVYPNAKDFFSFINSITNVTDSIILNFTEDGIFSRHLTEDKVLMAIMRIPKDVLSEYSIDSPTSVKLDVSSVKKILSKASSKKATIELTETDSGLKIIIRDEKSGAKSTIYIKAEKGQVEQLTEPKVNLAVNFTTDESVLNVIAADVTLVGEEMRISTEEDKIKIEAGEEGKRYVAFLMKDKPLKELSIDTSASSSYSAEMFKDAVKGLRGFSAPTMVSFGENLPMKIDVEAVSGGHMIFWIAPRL
T1 sequence 2: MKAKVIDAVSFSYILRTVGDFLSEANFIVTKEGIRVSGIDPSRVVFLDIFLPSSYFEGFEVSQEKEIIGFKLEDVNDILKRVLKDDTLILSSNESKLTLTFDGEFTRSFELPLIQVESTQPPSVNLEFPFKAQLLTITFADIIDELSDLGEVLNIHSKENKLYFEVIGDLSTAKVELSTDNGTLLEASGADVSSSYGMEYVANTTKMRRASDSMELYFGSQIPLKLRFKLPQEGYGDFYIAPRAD
T1 sequence 3: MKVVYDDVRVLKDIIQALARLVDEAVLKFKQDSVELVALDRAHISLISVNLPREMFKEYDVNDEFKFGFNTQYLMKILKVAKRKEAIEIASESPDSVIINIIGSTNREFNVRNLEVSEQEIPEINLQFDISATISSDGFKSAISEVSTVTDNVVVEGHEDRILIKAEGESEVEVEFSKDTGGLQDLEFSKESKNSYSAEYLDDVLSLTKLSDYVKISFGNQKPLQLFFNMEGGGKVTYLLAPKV

[2] = molecular target: T1, PCNA123 (Saccharolobus solfataricus); remark: listed apart in the source
[3] = molecular target: T2, PolY (Y-family TLS DNA polymerase) (Saccharolobus/Sulfolobus solfataricus …, UniProt Q97W02 1-352); experiment: fluorescence anisotropy; Fluorescence anisotropy, 4 nM DNA, room temperature, 90 s incubation, Hill fit, mean of three titrations; binding buffer not stated in the material (as in ref 38); details: protein: recombinant, label: 5'-FAM on primer (strand 1), primer-template
T2 sequence: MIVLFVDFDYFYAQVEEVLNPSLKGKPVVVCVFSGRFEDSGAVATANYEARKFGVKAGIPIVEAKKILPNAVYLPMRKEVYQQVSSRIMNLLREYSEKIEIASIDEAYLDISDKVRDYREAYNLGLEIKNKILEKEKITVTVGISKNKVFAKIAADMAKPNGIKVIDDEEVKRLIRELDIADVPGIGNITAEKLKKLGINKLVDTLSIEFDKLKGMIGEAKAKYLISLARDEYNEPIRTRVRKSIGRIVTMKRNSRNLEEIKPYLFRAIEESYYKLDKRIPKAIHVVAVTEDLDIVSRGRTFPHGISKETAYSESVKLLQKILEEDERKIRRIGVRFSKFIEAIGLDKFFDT

[4] = 5' overhang 30 nt on template (strand 2)
[5] = 5' overhang 26 nt on template (strand 2)

B1: PolY (enzyme)
chain: MIVLFVDFDYFYAQVEEVLNPSLKGKPVVVCVFSGRFEDSGAVATANYEARKFGVKAGIPIVEAKKILPNAVYLPMRKEVYQQVSSRIMNLLREYSEKIEIASIDEAYLDISDKVRDYREAYNLGLEIKNKILEKEKITVTVGISKNKVFAKIAADMAKPNGIKVIDDEEVKRLIRELDIADVPGIGNITAEKLKKLGINKLVDTLSIEFDKLKGMIGEAKAKYLISLARDEYNEPIRTRVRKSIGRIVTMKRNSRNLEEIKPYLFRAIEESYYKLDKRIPKAIHVVAVTEDLDIVSRGRTFPHGISKETAYSESVKLLQKILEEDERKIRRIGVRFSKFIEAIGLDKFFDT
[1]
  observed rate constant (kobs) of 8-oxoG lesion bypass from primer p22 (-1), Scheme ii: PolY added at initiation to DNA pre-loaded with PCNA123 and RFC; rapid quench, 40°C: 0.22 s⁻¹

B2: PolB1 (enzyme)
chain: MTKQLTLFDIPSSKPAKSEQNTQQSQQSAPVEEKKVVRREWLEEAQENKIYFLLQVDYDGKKGKAVCKLFDKETQKIYALYDNTGHKPYFLVDLEPDKVGKIPKIVRDPSFDHIETVSKIDPYTWNKFKLTKIVVRDPLAVRRLRNDVPKAYEAHIKYFNNYMYDIGLIPGMPYVVKNGKLESVYLSLDEKDVEEIKKAFADSDEMTRQMAVDWLPIFETEIPKIKRVAIDIEVYTPVKGRIPDSQKAEFPIISIALAGSDGLKKVLVLNRNDVNEGSVKLDGISVERFNTEYELLGRFFDILLEYPIVLTFNGDDFDLPYIYFRALKLGYFPEEIPIDVAGKDEAKYLAGLHIDLYKFFFNKAVRNYAFEGKYNEYNLDAVAKALLGTSKVKVDTLISFLDVEKLIEYNFRDAEITLQLTTFNNDLTMKLIVLFSRISRLGIEELTRTEISTWVKNLYYWEHRKRNWLIPLKEEILAKSSNIRTSALIKGKGYKGAVVIDPPAGIFFNITVLDFASLYPSIIRTWNLSYETVDIQQCKKPYEVKDETGEVLHIVCMDRPGITAVITGLLRDFRVKIYKKKAKNPNNSEEQKLLYDVVQRAMKVFINATYGVFGAETFPLYAPAVAESVTALGRYVITSTVKKAREEGLTVLYGDTDSLFLLNPPKNSLENIIKWVKTTFNLDLEVDKTYKFVAFSGLKKNYFGVYQDGKVDIKGMLVKKRNTPEFVKKVFNEVKELMISINSPNDVKEIKRKIVDVVKGSYEKLKNKGYNLDELAFKVMLSKPLDAYKKNTPQHVKAALQLRPFGVNVLPRDIIYYVKVRSKDGVKPVQLAKVTEIDAEKYLEALRSTFEQILRAFGVSWDEIAATMSIDSFFSYPSKGNS
[2]
  observed rate constant (kobs) of extension from primer p26 (+3), Scheme vi: PolB1 added at initiation to DNA pre-loaded with PCNA123 and RFC; rapid quench, 40°C: 2.1 s⁻¹

B3: p22-FAM/t52Und (-1, undamaged) (dsDNA)
DNA 1: GCGAGGCGAGCGCGAGCGATAC
DNA 2: CGTCCAACATGAAGCTTGCACTCGATCGCGGTATCGCTCGCGCTCGCCTCGC
[3]; [4]
  Kd: 16.1 ± 0.4 nM

B4: p26-FAM/t52Und (+3, undamaged) (dsDNA)
DNA 1: GCGAGGCGAGCGCGAGCGATACCGCG
DNA 2: CGTCCAACATGAAGCTTGCACTCGATCGCGGTATCGCTCGCGCTCGCCTCGC
[3]; [5]
  Kd: 31.2 ± 3.5 nM

B5: p22-FAM/t528 (-1, 8-oxoG) (dsDNA)
DNA 1: GCGAGGCGAGCGCGAGCGATAC
DNA 2: CGTCCAACATGAAGCTTGCACTCGATCGCGGTATCGCTCGCGCTCGCCTCGC
modifications: 8-oxoguanine at position 30 from 5' of strand 2 (23 from 3' end), written as G
[3]; [4]
  Kd: 25.9 ± 8.2 nM

B6: p26-FAM/t528 (+3, 8-oxoG) (dsDNA)
DNA 1: GCGAGGCGAGCGCGAGCGATACCGCG
DNA 2: CGTCCAACATGAAGCTTGCACTCGATCGCGGTATCGCTCGCGCTCGCCTCGC
modifications: 8-oxoguanine at position 30 from 5' of strand 2 (23 from 3' end), written as G
[3]; [5]
  Kd: 13 ± 0.4 nM
